Assay results: the supplement of paper PMC7125110
± gives the standard error. For part of these data: Fewer inactive variants are shown than the library holds.

B1: glmS ribozyme (parent)
chain: AUAAAAGCGCCAGAACUACAGAAAUGUAGUUGACGAGGAGGAGGUUUAUCGAAUUUUCGGCGGAUGCCUCCAAA

How the values were obtained:
Details in all cases: with glucosamine-6-phosphate
glucosamine-6-phosphate [1] = variants of: B1; assay: kcat; higher = faster cleavage; RNA array
How it was run: (§1)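 Tiles of sequenced MiSeq chips were imaged over ~14 h at 37 °C. On them, barcoded ribozyme variants had been transcribed in situ by E. coli RNA polymerase and were tracked via a hybridised Cy3 probe while glucosamine-6-phosphate (40 μM to 10 mM) in HEPES/KCl/Mg(OAc)2 buffer flowed in. Per-tile medians, normalised to baseline and to non-cleaving reference variants, were fit to one- or two-exponential decays for kobs, and weighted Michaelis–Menten fits gave kcat and KM.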

glucosamine-6-phosphate [2] = variants of: B1; assay: self-cleavage kobs at 640 uM GlcN6P; higher = faster cleavage; RNA array
How it was run: as §1

glucosamine-6-phosphate [3] = variants of: B1; assay: self-cleavage kobs at 2500 uM GlcN6P; higher = faster cleavage; RNA array
How it was run: as §1

glucosamine-6-phosphate [4] = variants of: B1; assay: self-cleavage kobs at 10000 uM GlcN6P; higher = faster cleavage; RNA array
How it was run: as §1

glucosamine-6-phosphate [5] = variants of: B1; assay: KM; higher = weaker cofactor use; RNA array
How it was run: as §1

glucosamine-6-phosphate [6] = variants of: B1; assay: self-cleavage kobs at 40 uM GlcN6P; higher = faster cleavage; RNA array
How it was run: as §1

glucosamine-6-phosphate [7] = variants of: B1; assay: self-cleavage kobs at 160 uM GlcN6P; higher = faster cleavage; RNA array
How it was run: as §1

Variant | kcat (glucosamine-6-phosphate [1]) | self-cleavage kobs at 640 uM GlcN6P (glucosamine-6-phosphate [2]) | self-cleavage kobs at 2500 uM GlcN6P (glucosamine-6-phosphate [3]) | self-cleavage kobs at 10000 uM GlcN6P (glucosamine-6-phosphate [4]) | KM (glucosamine-6-phosphate [5]) | self-cleavage kobs at 40 uM GlcN6P (glucosamine-6-phosphate [6]) | self-cleavage kobs at 160 uM GlcN6P (glucosamine-6-phosphate [7])
U30A U56C | 0.0028 ± 0.00091 s⁻¹ | 0.000126 ± 2.4e-05 s⁻¹ | 0.000369 ± 8.1e-05 s⁻¹ | 0.00113 ± 0.00015 s⁻¹ |  |  | 
U30A A64G | 0.00654 ± 0.00069 s⁻¹ | 0.00193 ± 0.00045 s⁻¹ | 0.0035 ± 0.0008 s⁻¹ | 0.00607 ± 0.0014 s⁻¹ | 1670 ± 240 µM | 0.000149 ± 2.6e-05 s⁻¹ | 0.000656 ± 0.00022 s⁻¹
U31A C50A G51U A53G | < 1e-05 s⁻¹ |  |  |  |  |  | < 1e-05 s⁻¹
U30C G62U | < 1e-05 s⁻¹ |  |  | < 1e-05 s⁻¹ |  |  | < 1e-05 s⁻¹
U30C G62A | < 1e-05 s⁻¹ | < 1e-05 s⁻¹ |  |  |  |  | 
U30G A53U | 0.00761 ± 0.0027 s⁻¹ | 0.0019 ± 0.00032 s⁻¹ | 0.00357 ± 0.0007 s⁻¹ | 0.00788 ± 0.0011 s⁻¹ |  | 0.000261 ± 3.2e-05 s⁻¹ | 0.000465 ± 0.00011 s⁻¹
U30C C68G | 4.61e-05 ± 1.8e-05 s⁻¹ | 8.37e-05 ± 1.7e-05 s⁻¹ | 8.75e-05 ± 1.7e-05 s⁻¹ | 2.14e-05 ± 9.4e-06 s⁻¹ |  | 3.15e-05 ± 1.2e-05 s⁻¹ | 5.26e-05 ± 1.7e-05 s⁻¹
U30A U55G | 0.00534 ± 0.002 s⁻¹ | 0.00138 ± 0.00022 s⁻¹ | 0.00239 ± 0.00033 s⁻¹ | 0.00586 ± 0.00095 s⁻¹ |  | 0.000142 ± 2.1e-05 s⁻¹ | 0.000286 ± 5.5e-05 s⁻¹
U30C C71U | 0.000335 ± 3.4e-05 s⁻¹ | 9.35e-05 ± 1e-05 s⁻¹ | 0.000195 ± 1.6e-05 s⁻¹ | 0.000307 ± 2.3e-05 s⁻¹ | 1530 ± 340 µM |  | 4.2e-05 ± 6.8e-06 s⁻¹
U30A U65C | 0.000105 ± 8e-06 s⁻¹ |  | 4.68e-05 ± 1.5e-05 s⁻¹ | 8.23e-05 ± 1.6e-05 s⁻¹ | 2860 ± 590 µM |  | 
U30A U65G | 0.00214 ± 0.00022 s⁻¹ | 0.000275 ± 8.9e-05 s⁻¹ | 0.000614 ± 0.00016 s⁻¹ | 0.00141 ± 0.00016 s⁻¹ | 5250 ± 1000 µM |  | 6.8e-05 ± 2.4e-05 s⁻¹
U30G A64G | 0.00607 ± 0.0017 s⁻¹ |  |  | 0.0064 ± 0.0018 s⁻¹ | 1440 ± 540 µM | 0.000178 ± 3.9e-05 s⁻¹ | 
U30G A64C | 5.41e-05 ± 5.3e-06 s⁻¹ |  |  | 3.61e-05 ± 1.5e-05 s⁻¹ | 4950 ± 1100 µM |  | 
G29U G40U | 0.000422 ± 3.9e-05 s⁻¹ | 0.00014 ± 1.5e-05 s⁻¹ | 0.00032 ± 4.6e-05 s⁻¹ | 0.000349 ± 4.9e-05 s⁻¹ | 1290 ± 220 µM |  | 4.21e-05 ± 1.1e-05 s⁻¹
G29C C67G | 8e-05 ± 4.8e-06 s⁻¹ |  | 4.84e-05 ± 1.1e-05 s⁻¹ | 7.18e-05 ± 1.4e-05 s⁻¹ | 1430 ± 280 µM |  | 
G29C U45C | 0.000137 ± 2.1e-05 s⁻¹ |  | 9.03e-05 ± 2e-05 s⁻¹ | 0.000108 ± 1.8e-05 s⁻¹ | 2120 ± 930 µM |  | 

Variant | kcat (glucosamine-6-phosphate [1]) | self-cleavage kobs at 640 uM GlcN6P (glucosamine-6-phosphate [2]) | self-cleavage kobs at 2500 uM GlcN6P (glucosamine-6-phosphate [3]) | self-cleavage kobs at 10000 uM GlcN6P (glucosamine-6-phosphate [4]) | KM (glucosamine-6-phosphate [5]) | self-cleavage kobs at 40 uM GlcN6P (glucosamine-6-phosphate [6]) | self-cleavage kobs at 160 uM GlcN6P (glucosamine-6-phosphate [7])
G29C U45G | 0.000453 ± 2e-05 s⁻¹ | 6.1e-05 ± 1.6e-05 s⁻¹ | 0.000159 ± 3.6e-05 s⁻¹ | 0.000319 ± 3.3e-05 s⁻¹ | 4250 ± 400 µM |  | 
U30A C67A | 0.00161 ± 0.00066 s⁻¹ | 0.000231 ± 4.7e-05 s⁻¹ | 0.00102 ± 0.00018 s⁻¹ | 0.00131 ± 0.0002 s⁻¹ |  | 4.92e-05 ± 9.2e-06 s⁻¹ | 0.00014 ± 3.7e-05 s⁻¹
U30G U56A | 0.00811 ± 0.0019 s⁻¹ | 0.00146 ± 0.00024 s⁻¹ | 0.003 ± 0.00057 s⁻¹ | 0.00771 ± 0.0011 s⁻¹ | 2730 ± 850 µM | 0.000125 ± 1.6e-05 s⁻¹ | 0.000498 ± 0.0001 s⁻¹
G29U G32C | 0.000123 ± 3.9e-06 s⁻¹ |  | 5.78e-05 ± 8.5e-06 s⁻¹ | 9.71e-05 ± 8.4e-06 s⁻¹ | 2730 ± 250 µM | < 1e-05 s⁻¹ | 
G29U G32U | 0.00125 ± 0.00041 s⁻¹ | 0.00011 ± 1.5e-05 s⁻¹ | 0.000243 ± 3e-05 s⁻¹ | 0.000702 ± 7.1e-05 s⁻¹ | 8560 ± 4000 µM |  | 
U31A U56G | 0.0146 ± 0.0054 s⁻¹ | 0.00335 ± 0.00098 s⁻¹ | 0.00579 ± 0.0015 s⁻¹ | 0.0132 ± 0.0039 s⁻¹ | 2950 ± 1500 µM | 0.000249 ± 5.8e-05 s⁻¹ | 0.000532 ± 0.00021 s⁻¹
G29U C61G | 3.41e-05 ± 1.3e-05 s⁻¹ |  |  | < 1e-05 s⁻¹ |  |  | 
G29C U30G | 0.00361 ± 0.0014 s⁻¹ | 0.00138 ± 0.00041 s⁻¹ | 0.00147 ± 0.00036 s⁻¹ | 0.00472 ± 0.00086 s⁻¹ |  | 8.92e-05 ± 1.8e-05 s⁻¹ | 0.000309 ± 6.9e-05 s⁻¹
G29U A36U | < 1e-05 s⁻¹ |  | < 1e-05 s⁻¹ |  |  |  | 
U30A C58G G59A C70G | 2.1e-05 ± 2.6e-06 s⁻¹ |  |  |  |  |  | 
U31A | 0.0242 ± 0.0089 s⁻¹ | 0.00431 ± 0.00015 s⁻¹ | 0.00997 ± 0.00043 s⁻¹ | 0.0286 ± 0.0012 s⁻¹ | 2460 ± 1100 µM | 0.000428 ± 7.9e-06 s⁻¹ | 0.00127 ± 5.8e-05 s⁻¹
U30A U69A | 5.09e-05 ± 2.2e-05 s⁻¹ |  | 9.65e-05 ± 1.8e-05 s⁻¹ | 3.22e-05 ± 1.1e-05 s⁻¹ |  |  | 5.73e-05 ± 2.4e-05 s⁻¹
U30A C58A | 0.000164 ± 5e-05 s⁻¹ |  | 9.07e-05 ± 2.9e-05 s⁻¹ | 0.000114 ± 2.4e-05 s⁻¹ |  |  | 
G29C G40A | 0.000208 ± 2.8e-05 s⁻¹ | 0.000102 ± 1.6e-05 s⁻¹ | 0.000221 ± 3.6e-05 s⁻¹ | 0.000178 ± 2.1e-05 s⁻¹ | 747 ± 260 µM |  | 3.05e-05 ± 9.1e-06 s⁻¹
U30C U56A | 0.000339 ± 6.9e-06 s⁻¹ | 6.11e-05 ± 6.9e-06 s⁻¹ | 0.000155 ± 1.6e-05 s⁻¹ | 0.000263 ± 2.4e-05 s⁻¹ | 2910 ± 110 µM |  | 
U30G G32A U49G | 6.41e-05 ± 1.8e-05 s⁻¹ |  | 6.89e-05 ± 2.1e-05 s⁻¹ | 5.26e-05 ± 1.5e-05 s⁻¹ |  |  | 
